Source: paper PMC7885266 (Chemical Science, 2020)
“And” between values parts separate entries of the source, which are not always exact repeats. Identical values can stand only once.

B1: 1TBP-CTPR2 (designed binder)
chain: AEAWYNLGNAYYKQGDYQKAIEYYQKALELDPNNREAGDGEEDPRSAEAWYNLGNAYYKQGDYQKAIEYYQKALELDPRS
B3: Tankyrase-2 Ankyrin Repeat Cluster 4 (residues 488-649) (domain or fragment, human, UniProt Q9H2K2 488-649, looked up)
chain: GNSEADRQLLEAAKAGDVETVKKLCTVQSVNCRDIEGRQSTPLHFAAGYNRVSVVEYLLQHGADVHAKDKGGLVPLHNACSYGHYEVAELLVKHGAVVNVADLWKFTPLHEAAAKGKYEICKLLLQHGADPTKKNRDGNTPLDLVKDGDTDIQDLLRGDAAL
notes: human tankyrase 2, fourth ankyrin-repeat cluster (ARC4), residues 488-649; also called hTNKS2 ARC4; TNKS2 ARC4; source: E. coli, purified (IMAC, SEC; His tag removed with thrombin)
B4: 4TBP-CTPR8 (designed binder)
chain: AEAWYNLGNAYYKQGDYQKAIEYYQKALELDPNNREAGDGEEDPRSAEAWYNLGNAYYKQGDYQKAIEYYQKALELDPRSAEAWYNLGNAYYKQGDYQKAIEYYQKALELDPNNREAGDGEEDPRSAEAWYNLGNAYYKQGDYQKAIEYYQKALELDPRSAEAWYNLGNAYYKQGDYQKAIEYYQKALELDPNNREAGDGEEDPRSAEAWYNLGNAYYKQGDYQKAIEYYQKALELDPRSAEAWYNLGNAYYKQGDYQKAIEYYQKALELDPNNREAGDGEEDPRSAEAWYNLGNAYYKQGDYQKAIEYYQKALELDPRS
B5: 2TBP-CTPR4 (designed binder)
chain: AEAWYNLGNAYYKQGDYQKAIEYYQKALELDPNNREAGDGEEDPRSAEAWYNLGNAYYKQGDYQKAIEYYQKALELDPRSAEAWYNLGNAYYKQGDYQKAIEYYQKALELDPNNREAGDGEEDPRSAEAWYNLGNAYYKQGDYQKAIEYYQKALELDPRS

What was measured:
Settings in all cases: both partners purified
[1] = molecular target: B3; experiment: ITC; TNKS2 ARC4 (500 μM) titrated into the cell holding one nTBP-CTPR2n construct (50, 25, 16.6 or 12.5 μM); 25 °C; 10 mM sodium phosphate, 150 mM NaCl, 0.5 mM TCEP, pH 7.4; OneSite model
3TBP-CTPR6 [2] = molecular target: T1, 3TBP-CTPR6; experiment: co-sedimentation; co-precipitation assay: 10 μM hTNKS2 ARC1–3 mixed with an equal volume of CTPR protein (fixed or increasing concentrations) in 50 mM Tris-HCl, 150 mM NaCl, 0.5 mM TCEP, pH 7.3; 1 h at room temperature, 20 000g 30 min; supernatant and pellet on SDS-PAGE, band densities give the stoichiometry in the pellet
T1 chain: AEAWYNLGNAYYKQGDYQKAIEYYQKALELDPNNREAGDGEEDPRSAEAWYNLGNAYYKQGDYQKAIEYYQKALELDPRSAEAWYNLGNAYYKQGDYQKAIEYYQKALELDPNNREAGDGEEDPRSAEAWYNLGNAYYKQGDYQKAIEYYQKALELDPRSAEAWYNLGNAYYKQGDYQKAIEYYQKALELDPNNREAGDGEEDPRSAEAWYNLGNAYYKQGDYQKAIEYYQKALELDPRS

1TBP-CTPR2 = molecular target: B1; experiment: ITC; TNKS2 ARC4 (500 μM) titrated into the cell holding one nTBP-CTPR2n construct (50, 25, 16.6 or 12.5 μM); 25 °C; 10 mM sodium phosphate, 150 mM NaCl, 0.5 mM TCEP, pH 7.4; OneSite model
2TBP-CTPR4 = molecular target: B5; experiment: as above
3TBP-CTPR6 [3] = molecular target: T1, 3TBP-CTPR6; experiment: as above
4TBP-CTPR8 = molecular target: B4; experiment: as above

## B1
[1]
  Kd: 14.7 µM and 12.8 µM

B2: Tankyrase-2 Ankyrin Repeat Clusters 1-3 (residues 2-485) (domain or fragment, human, UniProt Q9H2K2 2-485, looked up)
chain: SGRRCAGGGAACASAAAEAVEPAARELFEACRNGDVERVKRLVTPEKVNSRDTAGRKSTPLHFAAGFGRKDVVEYLLQNGANVQARDDGGLIPLHNACSFGHAEVVNLLLRHGADPNARDNWNYTPLHEAAIKGKIDVCIVLLQHGAEPTIRNTDGRTALDLADPSAKAVLTGEYKKDELLESARSGNEEKMMALLTPLNVNCHASDGRKSTPLHLAAGYNRVKIVQLLLQHGADVHAKDKGDLVPLHNACSYGHYEVTELLVKHGACVNAMDLWQFTPLHEAASKNRVEVCSLLLSYGADPTLLNCHNKSAIDLAPTPQLKERLAYEFKGHSLLQAAREADVTRIKKHLSLEMVNFKHPQTHETALHCAAASPYPKRKQICELLLRKGANINEKTKEFLTPLHVASEKAHNDVVEVVVKHEAKVNALDNLGQTSLHRAAYCGHLQTCRLLLSYGCDPNIISLQGFTALQMGNENVQQLLQEGI
notes: human tankyrase 2, ankyrin-repeat clusters 1-3, residues 2-485; also called hTNKS2 ARC1–3; source: E. coli, purified (IMAC, SEC; His tag removed with thrombin)
3TBP-CTPR6 [2]
  stoichiometry N: 1

## B3
1TBP-CTPR2
  stoichiometry N: 1.01 and 0.9
2TBP-CTPR4
  stoichiometry N: 2.18 and 2.05
3TBP-CTPR6 [3]
  stoichiometry N: 2.77 and 2.72
4TBP-CTPR8
  stoichiometry N: 3.38 and 2.91

## B4
[1]
  Kd: 13.6 µM and 15.5 µM

## B5
[1]
  Kd: 11.9 µM and 18.6 µM
